Experiment [1] deals with GhMYC2. In words: Luciferase experiment in tobacco leaves with GhMYC2. As to conditions: no fluorescence on the control. The experiment is classed as binding, cotton. The source says: (§1) Method of the luciferase experiment: GhJAZ1 (corresponding encoding gene sequence set forth in SEQ ID No. 39) was subcloned into pCAMBIA-CLuc vector (Chen, H., et al. “Firefly Luciferase Complementation Imaging Assay for Protein-Protein Interactions in Plants.” Plant Physiology 146.2(2008):368-376.) between KpnI and SalI cleavage sites, and the transcription factors such as GhMYC2 (corresponding encoding gene sequence set forth in SEQ ID No. 72), GhNINJA (corresponding encoding gene sequence set forth in SEQ ID No. 74), and GhCOI1 (corresponding encoding gene sequence set forth in SEQ ID No. 80) were subcloned into pCAMBIA-NLuc (Chen, H., et al. “Firefly Luciferase Complementation Imaging Assay for Protein-Protein Interactions in Plants.” Plant Physiology 146.2(2008):368-376.) between KpnI and SalI cleavage sites, respectively. […] Luciferase substrates were applied at the infected leaves before taking images and placed in a dark room for at least 6 min to quench fluorescence, followed by observation on the Nightowl-II LB983 instrument, using IndigoBasic software under the luciferase-5 min setting conditions.

For experiment [2], the system named is GhCOI1. In words: Luciferase experiment in tobacco leaves with GhCOI1. It is filed as binding, cotton. As to conditions: no fluorescence on the control.
Excerpt: as §1

Experiment [3] has as its system GhTPL. In words: CO-IP experiment with GhTPL. It is filed as binding, cotton. Here is the method: (§2) Steps of method of CO-IP experiment: Non-denaturing lysate was added to 293T cell culture plate (Pricella, Cat. No.: CL-0005), and the cells were completely lysed at 4° C. The lysate was centrifuged at 12,000 rpm for 10 min and the supernatant was collected. The corresponding antibody was added to the obtained non-denatured protein solution, which was incubated overnight at 4° C. Pierce™ protein A/G magnetic agarose (Thermo Fisher Scientific, Inc.) were washed with lysis buffer, followed by addition pre-treated beads to the cell lysate, and incubation at room temperature for 2 hours. The mixture was centrifuged at 4° C., 2,500 rpm for 5 min with supernatant removed, and the agarose beads were washed 5 times with 1 ml of lysis buffer. An appropriate amount of protein loading buffer was added to the pellet, and the sample was incubated in water bath at 100° C. for 10 min. The band of interest was detected by Western blotting.

The test system of experiment [4] is GhHDA6. In words: CO-IP experiment with GhHDA6. The experiment is classed as binding, cotton. Here is the method: as §2
Experiment [5] deals with T1, c-Myc-150aa (Homo sapiens, UniProt P01106).
T1 construct: expressed in transfected cells
In words: Yeast two hybrid and LUC with c-Myc truncated to first 150 amino acids. It is filed as binding.
Excerpt: […]

T1 sequence (P01106 1-150): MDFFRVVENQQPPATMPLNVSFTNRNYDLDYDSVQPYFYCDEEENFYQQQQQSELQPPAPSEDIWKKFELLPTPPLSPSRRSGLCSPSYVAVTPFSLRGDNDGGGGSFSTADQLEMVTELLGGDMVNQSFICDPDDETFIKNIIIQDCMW
Chain of GhHDA6 (as listed by the source): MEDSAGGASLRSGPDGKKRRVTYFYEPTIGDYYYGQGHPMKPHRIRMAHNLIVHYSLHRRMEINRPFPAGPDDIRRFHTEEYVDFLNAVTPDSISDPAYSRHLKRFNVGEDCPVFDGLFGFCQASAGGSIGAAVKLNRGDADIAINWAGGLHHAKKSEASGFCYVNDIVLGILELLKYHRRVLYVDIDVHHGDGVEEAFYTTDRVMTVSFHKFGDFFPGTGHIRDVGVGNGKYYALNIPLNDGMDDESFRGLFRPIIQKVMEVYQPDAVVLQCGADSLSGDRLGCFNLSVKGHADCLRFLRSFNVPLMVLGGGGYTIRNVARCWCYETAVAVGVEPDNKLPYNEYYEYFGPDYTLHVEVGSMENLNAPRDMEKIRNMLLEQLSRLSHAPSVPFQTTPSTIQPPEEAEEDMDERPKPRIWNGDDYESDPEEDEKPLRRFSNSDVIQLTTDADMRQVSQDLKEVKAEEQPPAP
Chain of GhTPL (as listed by the source): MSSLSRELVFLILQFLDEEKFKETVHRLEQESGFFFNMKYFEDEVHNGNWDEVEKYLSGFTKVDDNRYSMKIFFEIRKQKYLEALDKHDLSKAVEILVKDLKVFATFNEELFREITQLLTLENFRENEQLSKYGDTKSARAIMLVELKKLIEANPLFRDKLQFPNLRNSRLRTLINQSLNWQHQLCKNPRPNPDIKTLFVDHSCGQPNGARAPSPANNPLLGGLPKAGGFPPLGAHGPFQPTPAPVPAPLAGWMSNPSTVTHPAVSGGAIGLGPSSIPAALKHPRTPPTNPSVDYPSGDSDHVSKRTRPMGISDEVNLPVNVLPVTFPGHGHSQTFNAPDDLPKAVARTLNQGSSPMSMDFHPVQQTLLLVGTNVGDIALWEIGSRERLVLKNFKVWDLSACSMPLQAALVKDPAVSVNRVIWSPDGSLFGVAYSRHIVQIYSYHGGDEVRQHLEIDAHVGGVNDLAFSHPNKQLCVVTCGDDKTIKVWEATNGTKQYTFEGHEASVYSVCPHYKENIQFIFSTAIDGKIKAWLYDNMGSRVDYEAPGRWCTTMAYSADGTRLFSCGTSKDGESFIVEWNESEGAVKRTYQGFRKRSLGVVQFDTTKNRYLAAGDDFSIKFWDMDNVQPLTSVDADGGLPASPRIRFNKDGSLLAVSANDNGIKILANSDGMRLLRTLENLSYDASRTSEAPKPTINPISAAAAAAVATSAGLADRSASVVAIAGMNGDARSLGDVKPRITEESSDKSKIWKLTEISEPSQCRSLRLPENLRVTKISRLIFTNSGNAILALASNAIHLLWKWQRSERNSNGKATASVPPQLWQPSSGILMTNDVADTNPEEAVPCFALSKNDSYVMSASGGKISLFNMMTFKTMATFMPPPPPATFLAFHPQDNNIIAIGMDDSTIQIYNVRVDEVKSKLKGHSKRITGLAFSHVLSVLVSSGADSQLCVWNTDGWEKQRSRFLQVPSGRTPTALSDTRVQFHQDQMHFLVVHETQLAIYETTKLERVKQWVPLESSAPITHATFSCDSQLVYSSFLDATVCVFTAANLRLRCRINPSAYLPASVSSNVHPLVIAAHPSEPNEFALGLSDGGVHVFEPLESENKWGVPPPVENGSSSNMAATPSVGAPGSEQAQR
Chain of GhMYC2 (as listed by the source): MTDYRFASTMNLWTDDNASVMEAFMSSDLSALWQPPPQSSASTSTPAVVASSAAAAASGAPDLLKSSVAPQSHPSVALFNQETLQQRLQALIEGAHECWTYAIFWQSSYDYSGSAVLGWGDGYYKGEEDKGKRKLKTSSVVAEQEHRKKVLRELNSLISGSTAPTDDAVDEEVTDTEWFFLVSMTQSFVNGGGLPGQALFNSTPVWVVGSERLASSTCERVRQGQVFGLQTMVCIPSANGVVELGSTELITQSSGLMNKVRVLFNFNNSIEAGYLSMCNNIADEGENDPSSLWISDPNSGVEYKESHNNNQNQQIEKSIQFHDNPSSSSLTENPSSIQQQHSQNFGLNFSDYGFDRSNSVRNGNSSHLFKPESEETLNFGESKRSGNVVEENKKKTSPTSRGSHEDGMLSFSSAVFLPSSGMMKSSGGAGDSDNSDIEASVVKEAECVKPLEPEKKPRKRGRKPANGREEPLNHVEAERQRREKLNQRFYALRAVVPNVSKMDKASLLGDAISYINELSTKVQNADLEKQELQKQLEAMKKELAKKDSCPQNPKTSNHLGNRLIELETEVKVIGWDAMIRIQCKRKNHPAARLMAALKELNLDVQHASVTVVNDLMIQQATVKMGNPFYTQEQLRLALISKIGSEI
Chain of GhCOI1 (as listed by the source): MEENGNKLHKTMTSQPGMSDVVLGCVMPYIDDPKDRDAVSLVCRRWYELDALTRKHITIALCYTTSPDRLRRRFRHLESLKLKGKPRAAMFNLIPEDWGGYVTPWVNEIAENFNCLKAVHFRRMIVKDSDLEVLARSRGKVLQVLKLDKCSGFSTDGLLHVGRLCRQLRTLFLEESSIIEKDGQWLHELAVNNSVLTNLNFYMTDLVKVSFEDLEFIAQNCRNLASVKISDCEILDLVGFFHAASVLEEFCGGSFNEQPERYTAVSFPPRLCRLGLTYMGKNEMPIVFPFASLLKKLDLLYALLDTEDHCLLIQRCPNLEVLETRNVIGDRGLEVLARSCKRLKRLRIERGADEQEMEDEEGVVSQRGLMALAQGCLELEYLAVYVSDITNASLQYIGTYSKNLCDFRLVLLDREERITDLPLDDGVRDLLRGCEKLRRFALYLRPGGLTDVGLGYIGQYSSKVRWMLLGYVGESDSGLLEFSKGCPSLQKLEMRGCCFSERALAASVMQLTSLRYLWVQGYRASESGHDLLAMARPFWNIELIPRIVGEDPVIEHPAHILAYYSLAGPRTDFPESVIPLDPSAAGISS

B1: GhJAZ1: cotton JAZ1 protein, gene number Gh_A05G0260, sequence SEQ ID No. 4; prokaryotically expressed with His tag, about 30 KD (protein)
chain: MSSCSESTAMKPARSPEKPSFAQTCNLLSQYLKEKGSFGDLSLGMTCNVEANGTPVVPPPTMNLFPLNDKSDDVCGRNGGNPKNLTSMDLFPQQAGLASKDDSPNKLEPQTAPMTIFYGGQVIVFNDFPANKAKEIMLLASNSSSQSNNSFNPIPFTSSIARSPIESSIGVPPTSKPVHPAQRAVPGDLPIARRASLHRFLEKRKDRITAKAPYQINNSAAAPSLSGDNKSWLGLAAQSP
modifications: His tag
notes: prokaryotically expressed with His tag, about 30 KD
With B1, in experiment [1], the “fluorescence with GhMYC2 after applying luciferase substrate” value is “stronger fluorescence”. For the same molecule, the “fluorescence with GhCOI1 after applying luciferase substrate” value in experiment [2] is listed as “weaker fluorescence”. Besides, in experiment [3], the “interaction with GhTPL” value is reported as “interacts”. Besides, the “interaction with GhHDA6” value in experiment [4] was “interacts”. For the same molecule, the “interaction with first 150 amino acids truncated c-Myc” value in experiment [5] is listed as “strong interactions”.

The record behind these values is patent publication US20240279288A1, “APPLICATION OF PLANT JAZ PROTEINS AND DERIVED POLYPEPTIDES IN PREVENTION AND TREATMENT OF HUMAN AND ANIMAL TUMORS” (ANYANG INSTITUTE OF SINO-COTTON INDUSTRY INNOVATION, priority 2021, published 2024).
